The target in one data set is T1, his-FIN13 (Mus musculus, UniProt Q61074).
T1 construct: Purified his-tagged full length FIN13 (his-FIN13); made in house; host or cells: E. coli BL21(DE3)
T1 sequence (Q61074 151-542 limits assumed): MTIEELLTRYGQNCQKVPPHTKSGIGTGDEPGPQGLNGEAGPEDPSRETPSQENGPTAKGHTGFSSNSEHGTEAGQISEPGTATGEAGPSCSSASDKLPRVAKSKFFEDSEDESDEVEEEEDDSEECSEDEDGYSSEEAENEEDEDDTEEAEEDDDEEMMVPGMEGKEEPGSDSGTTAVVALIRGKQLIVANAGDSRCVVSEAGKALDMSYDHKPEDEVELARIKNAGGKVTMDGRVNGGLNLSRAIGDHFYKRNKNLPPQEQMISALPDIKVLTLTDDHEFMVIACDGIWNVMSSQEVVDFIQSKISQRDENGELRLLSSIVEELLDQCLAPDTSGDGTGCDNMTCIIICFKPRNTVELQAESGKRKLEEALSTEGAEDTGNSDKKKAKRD
Description: Phosphatase assay of bacterially expressed his-FIN13 with 32P-labelled casein. The note with it: for effect on his-FIN13 phosphatase activity: 20 μg/ml, 20 mg/ml in FIG. 5 legend. The format is biochemical. As for the experimental part:
FIG. 5. Phosphatase activity of bacterially expressed FIN13. Purified his-tagged full length FIN13 (his-FIN13) or his-tagged catalytic domain FIN13 (his-FIN13-cat) were examined for their ability to dephosphorylate ^32 P-labelled cascin in vitro as described in the Materials and Methods. Phosphatase assays were performed in the absence of his-FIN13 (No FIN13; open bar) or with his-FIN13 incubated in the presence of 10 mM of the indicated divalent cation (MgCl2, ZnCl2, CaCl2 or MnCl2)(solid bars) or in the presence of the indicated mM concentrations of MnCl2 (half-tone bars). +EDTA: indicates his-FIN13 incubated in the presence of 10 mM EDTA and 10 mM MnCl2. his-FIN13-cat was incubated in the presence of the indicated mM concentrations of MnCl2 (cross-hatched bars). his-FIN13 was also incubated in the presence of 1 μM okadaic acid (OA), 20 mg/ml poly L-lysine (PL-L), 20 mg/ml protamine sulfate (PS). All incubations were performed for 1 h at 30° C.
Preparation of ^32 P-labelled casein. Casein (10 mg)(Sigma) was labelled with ^32 P using 10U of the catalytic subunit of cAMP dependent protein kinase (Sigma) in 50 mM Tris-HCl pH 7.0, 0.1 mM EGTA, 10 mM Mg-acetate, 0.1% β-mercaptoethanol, and 0.5 mCi of ^32 PγATP for 12 h at 30° C. The reaction mixture was then precipitated at 4° C. in 20% TCA. Labelled casein was recovered by centrifugation, the pellet washed 5 times in 100% acetone and resuspended in 50 mM Tris-HCl, 0.1 mM EGTA.
Phosphatase assay. The phosphatase activity of purified FIN13 expressed in bacteria as a fusion protein with N- and C-terminal his-tags was assessed in vitro using ^32 P-labelled casein as a substrate. For preparation of his-FIN13 and his-FIN13-cat from bacteria, the BL21(DE3) strain transformed with pEThis-FIN13 or pEThis-FIN13-cat were induced with 0.2 mM IPTG for 2 h following which the cells were recovered by centrifugation, resuspended in column buffer (50 mM sodium phosphate, pH 8.0, 300 mM NaCl, 1 mM PMSF) and frozen overnight at -70° C. The bacteria were then lysed by sonication at 4° C. and the extract cleared by centrifugation. The supernatant was then adsorbed to Ni-NTA-agarose (Qiagen) at 4° C. for 1 h. The resin was then washed extensively in column buffer without PMSF and his-FIN13 or his-FIN13-cat were eluted using 25 mM Tris-HCl pH 7.2, 100 mM NaCl containing […] imidazole (Sigma). In addition, the phosphatase activity of FIN13 expressed in HeLa cells was also determined in an immune complex using ^32 P-labelled casein as a substrate. For preparation of immune complexes of myc-FIN13, HeLa cells were transfected with […] of pRKmyc-FIN13 or pRK5. Cells were lysed 24 h after transfection in lysis buffer (10 mM Na-phosphate pH 7.4, 100 mM NaCl, 1% TRITON X-100, 10 mM EDTA) also containing a protease/phosphatase inhibitor cocktail (1 mM PMSF, 1 μg/ml pepstatin, 1 μg/ml leupeptin, 1 μg/ml aprotinin, 10 mM Na-orthovanadate, 80 mM NaF, 80 mM β-glycerolphosphate, 10 μM okadaic acid). Cleared lysates (100 μg total protein) were immunoprecipitated with anti-myc monoclonal antibody (9E10) adsorbed to 30 μl protein G sepharose (Zymed) or anti-FIN13 antiserum adsorbed to 30 μl protein A sepharose (Zymed) for 1.5 h at 4° C. The anti-FIN13 polyclonal antiserum (630) was generated against the full length his-FIN13 expressed and purified from bacteria. The IPs were then washed 5 times with lysis buffer, once with 10 mM Tris-HCl pH 7.0, 100 mM NaCl and 5 mM MnCl2, and twice with phosphatase reaction buffer (10 mM Tris-HCl pH 7.0, 0.1 mM EGTA, 10 mM DTT and 10 mM MnCl2) containing 1 μM okadaic acid. Purified his-FIN13, his-FIN13-cat or myc-lPs were then examined for phosphatase activity by incubating the indicated FIN13 preparation in the presence of phosphatase reaction buffer containing ^32 P-labelled casein (1×10^5 cpm; approx. 1 μl) at 30° C. for up to 2 h.

The test system of a further data set is HeLa cells. Nature of the data set: BrdU incorporation in transiently transfected HeLa cells. The format is cell-based, human. The note with it: summary of Table 1. Here is the method:
Bromodeoxyuridine (BrdU) incorporation. The effect of FIN13 expression on BrdU incorporation was determined in HeLa cells growing asynchronously in DMEM/10% calf serum. Cells were plated at 10000 cells/ml on coverslips and after 24 h were transfected with 10 μg of either pRKERK2-HA, CMVβ or pRKFIN13. Twenty four hours after transfection the medium was changed and the cells were incubated with BrdU labelling reagent (10 μl) for a further 12 h according to the suppliers instructions (Boehringer Mannheim). Following labelling, coverslips were rinsed in PBS and cells were fixed in 70% ethanol-50 mM glycine (pH 2.0) overnight at -20° C. Incorporated BrdU was detected with FITC-conjugated anti-BrdU (Boehringer Mannheim) by immunocytochemistry (see below).
Immunocytocliemistry. Fixed cells on coverslips were washed twice in PBS and twice in PBS/0.02% BSA followed by incubation with the primary antibody diluted in PBS/0.02% BSA for 1 hour at 37° C. (anti-FIN13 polyclonal serum at 1:200, anti-HA monoclonal antibody 12CA5 acities at 1:200 or anti-β-galactosidase GAL40 monoclonal antibody at 1:500). After washing, coverslips were incubated in secondary antibody as above (anti-rabbit Texas red at 1:200, anti-mouse Texas red at 1:200)(Molecular Probes). The coverslips were washed again and then incubated in […] (1:500) FITC-conjugated anti-BrdU (Boehringer Mannheim) as above. Where noted, cells were also stained with 1 μg/ml bis-benzimide (Hoechst #33342) in PBS. Coverslips were mounted and examined using a fluorescence microscope.
Cells Transiently Transfected with FIN13 are Blocked in the Cell Cycle. We have utilized a transient transfection approach to examine the effect of FIN13 expression on DNA synthesis and cell cycle progression. […] ERK2 is expressed as a nuclear protein in HeLa cells in the presence of 10% serum (Chen et al., Mol. Cell. Biol. 12:915-927 (1992)) while β-galactosidase is predominantly cytoplasmic. […] BrdU incorporation was detected using FITC-conjugated anti-BrdU antibodies.
In general terms: Incorporation of labelled thymidine or its analogues reports DNA synthesis.

Take poly L-lysine: on his-FIN13, the “effect on his-FIN13 phosphatase activity” value was “Neither poly L-lysine nor protamine sulfate significantly altered”.

For the molecule protamine sulfate, the “effect on his-FIN13 phosphatase activity” value with his-FIN13 was “Neither poly L-lysine nor protamine sulfate significantly altered”.

“ERK2-HA: control nuclear protein ERK2 expressed in HeLa cells”: in the data set with HeLa cells, the “cells expressing the protein observed to incorporate BrdU” value (from here on “cells expressing the protein observed”) was “greater than 70%”.

As for “β-galactosidase: control protein, predominantly cytoplasmic”, the “cells expressing the protein observed” value in the data set with HeLa cells was “greater than 70%”.

B1: his-FIN13: purified full length FIN13 expressed in bacteria as fusion protein with N- and C-terminal his-tags (protein)
chain: T1 sequence (Q61074 151-542 limits assumed)
As for B1, the “MnCl2 concentration giving maximal phosphatase activity” value in the data set with his-FIN13 (32P-labelled casein substrate) is given as 10 mM. In addition, the “phosphatase activity with other divalent cations” value in the data set with his-FIN13 (in the presence of MgCl2, ZnCl2 or CaCl2 (10 mM)) is reported as “No activity”. In the data set with his-FIN13 (in the presence of Mn2+ ions, 30° C.), the “dephosphorylation of 32P-labelled casein” value is “able to dephosphorylate”.

B2: FIN13: novel FGF-inducible type 2C serine/threonine phosphatase (protein)
chain: T1 sequence (Q61074 151-542 limits assumed)
Take B2: in the data set on HeLa cells, the “cells expressing the protein observed” value is 10-17%.

B3: his-FIN13-cat: catalytic domain of FIN13 (amino acids 195 to 392) with N- and C-terminal poly(6)-histidine tags (protein)
chain: DSRCVVSEAGKALDMSYDHKPEDEVELARIKNAGGKVTMDGRVNGGLNLSRAIGDHFYKRNKNLPPQEQMISALPDIKVLTLTDDHEFMVIACDGIWNVMSSQEVVDFIQSKISQRDENGELRLLSSIVEELLDQCLAPDTSGDGTGCDNMTCIIICFKPRNTVELQAESGKRKLEEALSTEGAEDTGNSDKKKAKRD
Take B3: the figures for the “phosphatase activity of catalytic domain” value with his-FIN13 (10 mM MnCl2) and with his-FIN13 (400 mM MnCl2) were “poor phosphatase activity” and “detectable”, respectively.

The record behind these values is patent US6066485A, “Growth factor inducible serine/threonine phosphatase fin13” (New York University, priority 1997, dated 2000).
